From article PMC11996674, “Mechanism of mammalian transcriptional repression by noncoding RNA”

Biological target: RNA polymerase II (12-subunit) (Sus scrofa (thymus), UniProt A0A8D1DPV6;A0A0B8RVL1;P19387;O15514;P19388;P61218;P62487;P52434;P60899;P62875;A0 …)
Assay: cryo-EM; alternative conformation, EMD-18376; FA: 5 mM HEPES-NaOH pH 7.25, 150 mM NaCl, 10 uM ZnCl2, 1 mM MgCl2, 1 mM DTT, 4 nM RNA, 30 C; EMSA: 20 mM HEPES-NaOH pH 7.25, 150 mM NaCl, 1 mM MgCl2, 5% glycerol, 40 ug/ml BSA, 1 mM DTT, 5 nM RNA, 30 C (gel 4 C)
Settings: protein: native; copies: 1;1;1;1;1;1;1;1;1;1;1;1; folded; canonical and alternative conformations

B1: minimal Alu-RA (structured_RNA)
RNA: GAGGCAGGAGAAUGGCGUGAACCCGGGAGGUGGACGAGAUCGCUCCAGCCUGGGUGACAGAGCGAGACUCUGUCUC
Question: Does B1 bind?
Answer: Result: binds
